What was measured:
Cas1-Cas2 complex [1] = biological target: T1, Cas1-Cas2 complex (Escherichia coli, UniProt Q46896;P45956 1-305;1-94); test: EMSA; no Mg2+ added; EMSA: 20 nM DNA, 0-500 nM Cas1-Cas2, 20 mM Tris-HCl pH 8.0, BSA 100 (ug/ml), 7% glycerol, 37 C 30 min; 5% acrylamide TBE gel; details: protein: recombinant, tags: Cas1 N-terminal His6, Cas2 untagged, chain copies: 4;2, label: 5'-Cy5 on strand 1, 10 bp duplex
T1 sequence 1: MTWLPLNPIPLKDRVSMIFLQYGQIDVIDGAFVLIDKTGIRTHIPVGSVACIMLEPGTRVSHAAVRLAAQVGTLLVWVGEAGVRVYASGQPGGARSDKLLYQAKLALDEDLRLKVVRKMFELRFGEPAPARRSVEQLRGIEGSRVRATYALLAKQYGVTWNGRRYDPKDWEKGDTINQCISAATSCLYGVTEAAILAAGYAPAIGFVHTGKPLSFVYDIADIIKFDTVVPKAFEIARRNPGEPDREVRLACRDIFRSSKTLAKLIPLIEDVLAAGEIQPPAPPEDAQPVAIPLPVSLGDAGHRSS
T1 sequence 2: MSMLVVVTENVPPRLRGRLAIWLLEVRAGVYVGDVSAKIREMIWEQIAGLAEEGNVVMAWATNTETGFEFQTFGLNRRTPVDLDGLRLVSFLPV

Cas1-Cas2 complex [2] = biological target: T1, Cas1-Cas2 complex; test: EMSA; no Mg2+ added; complex formation improved over DNA-10; EMSA: 20 nM DNA, 0-500 nM Cas1-Cas2, 20 mM Tris-HCl pH 8.0, BSA 100 (ug/ml), 7% glycerol, 37 C 30 min; 5% acrylamide TBE gel; details: protein: recombinant; tags: Cas1 N-terminal His6; Cas2 untagged; chain copies: 4;2; label: 5'-Cy5 on strand 1; 14 bp duplex, 5' overhang 36 nt
Cas1-Cas2 complex [3] = biological target: T1, Cas1-Cas2 complex; test: EMSA; no Mg2+ added; up to 500 nM; EMSA: 20 nM DNA, 0-500 nM Cas1-Cas2, 20 mM Tris-HCl pH 8.0, BSA 100 (ug/ml), 7% glycerol, 37 C 30 min; 5% acrylamide TBE gel; details: protein: recombinant; tags: Cas1 N-terminal His6; Cas2 untagged; chain copies: 4;2; label: 5'-Cy5 on strand 1; blunt

B1: DNA-3' (3' overhang) (mixed)
DNA 1: CGGACGAACAACGAACAATGCCAACTAAAGCTCAACCCAGGTGAAACTAA
DNA 2: TGTTCGTCCG
B1: binds (Cas1-Cas2 complex [1]; 3' overhang 40 nt).

B2: DNA-10 (mixed)
DNA 1: AATCAAAGTGGACCCAACTCGAAATCAACCGTAACAAGCAACAAGCAGGC
DNA 2: GCCTGCTTGT
B2: binds (Cas1-Cas2 complex [1]; 5' overhang 40 nt).

B3: DNA-14 (mixed)
DNA 1: AATCAAAGTGGACCCAACTCGAAATCAACCGTAACAAGCAACAAGCAGGC
DNA 2: GCCTGCTTGTTGCT
B3: binds (Cas1-Cas2 complex [2]).

B4: Duplex (dsDNA)
DNA 1: AATCAAAGTGGACCCAACTCGAAATCAACCGTAACAAGCAACAAGCAGGC
DNA 2: GCCTGCTTGTTGCTTGTTACGGTTGATTTCGAGTTGGGTCCACTTTGATT
B4: no binding (Cas1-Cas2 complex [3]).
